One block for each binder: values may come before it.
Key:
[1] = biological target: T1, Molm-13 N1 tumor cells (carrying CD123, CD33 and CD70) (human, UniProt P20138 18-364; P26951 19-378; P32970 1-193); test: flow cytometry on Molm-13 N1 cells, 20 uM HSA
T1 construct: whole, on cells; Not a complex: three separate antigens on one cell; also called Molm-13 N1 cells
Method: The determination of binding of several multispecific proteins to tumor cells was performed by Fluorescence Activated Cell Sorting (FACS) flow cytometry. Therefore, tumor cells (Molm-13 N1), were seeded at 100′000 cells per well in a 96 well plate. DARPin® protein #56, DARPin® protein #57, DARPin® protein #58, DARPin® protein #59, DARPin® protein #60, DARPin® protein #61 and DARPin® protein #62 were titrated down starting at 100 nM in 1:5 dilution ratio. Tumor cells were resuspended with diluted DARPin® proteins and incubated 60 minutes at 4° C. The assay was performed in PBS including 2% fetal bovine serum and human serum albumin 20 uM (HSA). After washing twice with Phosphate Buffer saline (PBS), DARPin® protein specific tumor cell binding was detected by adding unlabelled primary […] (anti-rabbit 1-1-1 antibody, CePower) at 2 ug/ml. An incubation step of at least 30 minutes at 4° C. followed. Afterwards, cells were washed with PBS and a secondary anti-rabbit antibody labelled with Alexa Fluor 647 antibody (ThermoFisher) at 2 ug/ml was added. The same incubation conditions applied. Finally, the cells were washed twice and resuspended in Cytofix fixation buffer (BD Biosciences) for 15 min at room temperature (RT). Median fluorescence intensities (MFI) of Alexa Fluor 647 DARPin® labelled cells were measured by Attune NxT (Thermo Fisher) using FlowJo software for analyses and GraphPad Prism 8 for data plotting.

[2] = biological target: T2, extracellular domain of human CD70 (SEQ ID NO: 89), hCD70-Fc-trimer, ACRO Biosystems (human, UniProt P32970 52-193, chemically biotinylated where the biotinylated form was used); test: SPR (ProteOn XPR36), target on GLC chip, DARPin as analyte
T2 construct: also called human CD70-Fc-trimer; Bio.CD70
T2 sequence: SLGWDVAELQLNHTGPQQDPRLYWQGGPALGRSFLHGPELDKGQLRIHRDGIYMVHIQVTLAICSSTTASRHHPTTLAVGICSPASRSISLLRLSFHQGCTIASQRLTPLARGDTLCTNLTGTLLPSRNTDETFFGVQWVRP
Description: (§1) For that, DARPin® protein #27, DARPin® protein #29, DARPin® protein #47 and DARPin® protein #48 and DARPin® protein #49, DARPin® protein #50, DARPin® protein #51, DARPin® protein #52, DARPin® protein #31, DARPin® protein #53, DARPin® protein #54, DARPin® protein #55, DARPin® protein #34, DARPin® protein #33, DARPin® protein #39 and DARPin® protein #36 were subcloned and expressed as described above into derivatives of the pQE30 (Qiagen) expression vector, containing an N-terminal His-tag, CD33, CD123 and/or CD70 binding ankyrin repeat domains, followed by a CD3 specific ankyrin repeat domain and for some constructs by a human serum albumin specific ankyrin repeat domain.
(§2) Briefly, biotinylated human CD70, CD123 and CD33 was diluted in PBST (PBS, pH 7.4 containing 0.005% Tween 20®) and coated on a GLC chip (BioRad) to a level of around 200, 460 and 450 resonance units (RU) respectively. HSA in NaOAc pH 5.0 was directly immobilized on the GLC chip to a level of 800 RU. Bio.CD70, bio. CD33 and bio. CD123 required to have Neutravidin coated first to a level of 6000 RU before the biotinylated targets could be applied. The interaction of the selected ankyrin repeat proteins and human CD70, CD123 and CD33 was then measured by injecting 300 μl running buffer (PBS, pH 7.4 containing 0.005% Tween 20®) containing serial dilutions of ankyrin repeat proteins covering a concentration range between 100 nM and 2.6 nM (100, 40, 16, 6.4 and 2.6 nM respectively) for multi-trace SPR measurements, with an association of 120 s and dissociation of 1200 s using a constant flow of 100 μl/min. The regeneration was performed using 30 μl of 4 mM Glycine pH 2. The signals (i.e. resonance unit (RU) values) of the interspots and a reference injection (i.e. injection of running buffer only) were subtracted from the RU traces obtained after injection of ankyrin repeat protein (double-referencing).

[3] = biological target: T3, biotinylated extracellular domain of human CD33 (SEQ ID NO: 87), Fc and Avi tagged (human, UniProt P20138 18-259, biotinylated with BirA-GST (Avi tag)); test: as above
T3 construct: also called hCD33; human target hCD33
T3 sequence (P20138 18-259 R69G): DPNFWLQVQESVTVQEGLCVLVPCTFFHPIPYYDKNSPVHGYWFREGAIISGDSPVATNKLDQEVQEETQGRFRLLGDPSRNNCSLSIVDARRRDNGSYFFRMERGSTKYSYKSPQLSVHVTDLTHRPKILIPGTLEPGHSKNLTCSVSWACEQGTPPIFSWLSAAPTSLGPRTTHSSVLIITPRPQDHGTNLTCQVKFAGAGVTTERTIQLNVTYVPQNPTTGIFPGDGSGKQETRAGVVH
Description: as §1, §2

[4] = biological target: T4, biotinylated extracellular domain of human CD123 (SEQ ID NO: 88), Fc and Avi tagged (human, UniProt P26951 19-303, biotinylated with BirA-GST (Avi tag)); test: as above
T4 construct: also called hCD123
T4 sequence: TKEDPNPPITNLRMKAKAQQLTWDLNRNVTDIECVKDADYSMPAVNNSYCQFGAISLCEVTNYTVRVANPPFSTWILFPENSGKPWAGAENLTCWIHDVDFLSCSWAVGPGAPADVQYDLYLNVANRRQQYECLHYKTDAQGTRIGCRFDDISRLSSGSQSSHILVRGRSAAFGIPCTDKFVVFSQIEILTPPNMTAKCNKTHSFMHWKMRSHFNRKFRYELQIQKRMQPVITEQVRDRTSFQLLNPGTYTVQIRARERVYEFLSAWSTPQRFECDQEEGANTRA
Description: as §1, §2

human serum albumin = biological target: T5, human serum albumin (human, UniProt P02768 25-609); test: as above
T5 construct: also called HSA; SA
T5 sequence (P02768 25-609 limits assumed): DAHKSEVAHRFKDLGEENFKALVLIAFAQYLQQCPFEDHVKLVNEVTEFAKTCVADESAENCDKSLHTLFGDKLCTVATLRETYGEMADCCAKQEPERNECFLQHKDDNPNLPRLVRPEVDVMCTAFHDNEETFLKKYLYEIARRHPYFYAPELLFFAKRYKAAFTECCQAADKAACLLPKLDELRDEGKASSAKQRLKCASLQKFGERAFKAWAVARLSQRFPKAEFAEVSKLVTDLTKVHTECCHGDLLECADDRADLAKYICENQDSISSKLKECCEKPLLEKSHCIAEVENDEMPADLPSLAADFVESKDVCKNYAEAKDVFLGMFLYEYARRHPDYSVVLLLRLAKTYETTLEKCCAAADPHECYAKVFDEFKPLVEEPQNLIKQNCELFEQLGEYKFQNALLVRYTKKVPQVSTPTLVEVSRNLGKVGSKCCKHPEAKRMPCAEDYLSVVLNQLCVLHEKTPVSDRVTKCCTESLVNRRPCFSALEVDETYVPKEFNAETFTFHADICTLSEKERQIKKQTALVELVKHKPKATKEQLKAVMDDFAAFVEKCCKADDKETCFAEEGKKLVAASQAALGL
Description: as §1, §2

T1 sequence (P20138 18-364, one chain of several): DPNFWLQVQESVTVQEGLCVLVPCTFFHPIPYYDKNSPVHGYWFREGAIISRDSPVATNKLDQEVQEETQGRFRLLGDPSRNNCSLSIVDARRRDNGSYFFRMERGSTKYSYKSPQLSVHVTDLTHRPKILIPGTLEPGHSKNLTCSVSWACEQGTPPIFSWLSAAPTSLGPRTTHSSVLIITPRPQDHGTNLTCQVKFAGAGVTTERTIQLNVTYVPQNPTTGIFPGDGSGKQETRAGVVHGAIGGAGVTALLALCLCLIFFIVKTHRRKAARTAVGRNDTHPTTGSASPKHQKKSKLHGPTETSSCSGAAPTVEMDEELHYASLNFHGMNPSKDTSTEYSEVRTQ

B2: DARPin® protein #55 (designed binder)
chain: MRGSHHHHHHDLGYKLLQAAYDGQLDEVRILLKAGADVNAKDSRGQTPLHYAASIGHLEIVEVLLKAGADVNAKDDHGWTPLHLAAWSGHLEIVEVLLKAGADVNAQDQEGTTPADLAAVQGHQDIAEVLQKAAGSPTPTPTTPTPTPTTPTPTPTGSDLGKKLLEAALEGQLDEVRELLKAGADVNAKDQEGYTPLHLAAALGHLEIVEVLLKAGADVNAKDSIGRTPLHLAAYKGHLEIVEVLLKAGADVNAQDLLGETPADLAAEQGHQDIAEVLQKAAGSPTPTPTTPTPTPTTPTPTPTGSDLGVKLLRAAVHGQLDEVRILLKAGADVNAKDTDGETPLHYAAQFGHLEIVEVLLKAGADVNAKDAYGATPLHWAAWHGHLEIVEVLLKAGADVNAQDVSGATPADLAAKVGHQDIAEVLQKAAGSPTPTPTTPTPTPTTPTPTPTGSDLGQKLLEAAWAGQDDEVRELLKAGADVNAKNSRGWTPLHTAAQTGHLEIFEVLLKAGADVNAKDDKGVTPLHLAAALGHLEIVEVLLKAGADVNAQDSWGTTPADLAAKYGHEDIAEVLQKAAGSPTPTPTTPTPTPTTPTPTPTGSDLGKKLLEAARAGQDDEVRELLKAGADVNAKDYFSHTPLHLAARNGHLKIVEVLLKAGADVNAKDFAGKTPLHLAAADGHLEIVEVLLKAGADVNAQDIFGKTPADIAADAGHEDIAEVLQKAA
notes: CD70-CD123-CD33-CD3-HSA
Kd [2]: 0.38 nM | Kd [3]: 9.6 nM | Kd [4]: 13 nM | Kd (human serum albumin): 7.5 nM

B3: DARPin® protein #59 (designed binder)
chain: DLGKKLLEAARAGQDDEVRELLKAGADVNAKDYFSHTPLHLAARNGHLKIVEVLLKAGADVNAKDFAGKTPLHLAAADGHLEIVEVLLKAGADVNAQDIFGKTPADIAADAGHEDIAEVLQKAAGSPTPTPTTPTPTPTTPTPTPTGSDLGKKLLEAARAGQDDEVRELLKAGADVNAKDYFSHTPLHLAARNGHLKIVEVLLKAGADVNAKDFAGKTPLHLAAADGHLEIVEVLLKAGADVNAQDIFGKTPADIAADAGHEDIAEVLQKAAGSPTPTPTTPTPTPTTPTPTPTGSDLGIKLLTAAYDGQLDEVRILLKAGADVNAKDLRGQTPLHYAAGLGHLEIVEVLLKAGADVNAKDLHGWTPLHLAAWSGHLEIVEVLLKAGADVNAQDVEGVTPADLAAVQGHQDIAEVLQKAAGSPTPTPTTPTPTPTTPTPTPTGSDLGKKLLEAALEGQLDEVRELLKAGADVNAKDQEGYTPLHLAAALGHLEIVEVLLKAGADVNAKDQIGRTPLHLAAYKGHLEIVEVLLKAGADVNAQDIIGQTPADLAAQRGHQDIAEVLQKAAGSPTPTPTTPTPTPTTPTPTPTGSDLGVKLLLAAERGQLDEVRILLKAGADVNAKDIAEGYTPLHIAAYQGHLEIVEVLLKAGADVNAKDRYGKTPLHLAAIGGHLEIVEVLLKAGADVNAQDNKGSTPADLAADYGHQDIAEVLQKAAGSPTGSDLGQKLLEAAWAGQDDEVRELLKAGADVNAKNSRGWTPLHTAAQTGHLEIFEVLLKAGADVNAKNDKRVTPLHLAAALGHLEIVEVLLKAGADVNARDSWGTTPADLAAKYGHQDIAEVLQKAA
notes: HSA-HSA-CD70-CD123-CD33-CD3
EC50 [1]: 0.19 nM

Further lines, results first:

EC50 [1]: 0.17 nM
B1: DARPin® protein #58 (designed binder)
chain: DLGKKLLEAARAGQDDEVRELLKAGADVNAKDYFSHTPLHLAARNGHLKIVEVLLKAGADVNAKDFAGKTPLHLAAADGHLEIVEVLLKAGADVNAQDIFGKTPADIAADAGHEDIAEVLQKAAGSPTPTPTTPTPTPTTPTPTPTGSDLGKKLLEAARAGQDDEVRELLKAGADVNAKDYFSHTPLHLAARNGHLKIVEVLLKAGADVNAKDFAGKTPLHLAAADGHLEIVEVLLKAGADVNAQDIFGKTPADIAADAGHEDIAEVLQKAAGSPTPTPTTPTPTPTTPTPTPTGSDLGIKLLTAAYDGQLDEVRILLKAGADVNAKDLRGQTPLHYAAGLGHLEIVEVLLKAGADVNAKDLHGWTPLHLAAWSGHLEIVEVLLKAGADVNAQDVEGVTPADLAAVQGHQDIAEVLQKAAGSPTPTPTTPTPTPTTPTPTPTGSDLGWKLLDAAEIGQLDEVRILLKAGADVNAKDKQGITPLHIAAAHGHLEIVEVLLKAGADVNAKDEIGRTPLHLAAFKGHLEIVEVLLKAGADVNAQDIIGETPADLAAVRGHQDIAEVLQKAAGSPTPTPTTPTPTPTTPTPTPTGSDLGVKLLLAAERGQLDEVRILLKAGADVNAKDIAEGYTPLHIAAYQGHLEIVEVLLKAGADVNAKDRYGKTPLHLAAIGGHLEIVEVLLKAGADVNAQDNKGSTPADLAADYGHQDIAEVLQKAAGSPTGSDLGQKLLEAAWAGQDDEVRELLKAGADVNAKNSRGWTPLHTAAQTGHLEIFEVLLKAGADVNAKNDKRVTPLHLAAALGHLEIVEVLLKAGADVNARDSWGTTPADLAAKYGHQDIAEVLQKAA
notes: HSA-HSA-CD70-CD123-CD33-CD3

EC50 [1]: 0.16 nM
B4: DARPin® protein #60 (designed binder)
chain: DLGKKLLEAARAGQDDEVRELLKAGADVNAKDYFSHTPLHLAARNGHLKIVEVLLKAGADVNAKDFAGKTPLHLAAADGHLEIVEVLLKAGADVNAQDIFGKTPADIAADAGHEDIAEVLQKAAGSPTPTPTTPTPTPTTPTPTPTGSDLGKKLLEAARAGQDDEVRELLKAGADVNAKDYFSHTPLHLAARNGHLKIVEVLLKAGADVNAKDFAGKTPLHLAAADGHLEIVEVLLKAGADVNAQDIFGKTPADIAADAGHEDIAEVLQKAAGSPTPTPTTPTPTPTTPTPTPTGSDLGIKLLTAAYDGQLDEVRILLKAGADVNAKDLRGQTPLHYAAGLGHLEIVEVLLKAGADVNAKDLHGWTPLHLAAWSGHLEIVEVLLKAGADVNAQDVEGVTPADLAAVQGHQDIAEVLQKAAGSPTPTPTTPTPTPTTPTPTPTGSDLGKKLLQAARAGQLDEVRELLKAGADVNAKDQYGRTPLHLAAIKGHLEIVEVLLKAGADVNAKDSLGYTPLHLAAVEGPLEIVEVLLKAGADVNAKDAYGQTPLHIAAAWGHLEIVEVLLKAVADVNAQDKSGKTPADLAARAGHQDIAEVLQKAAGSPTPTPTTPTPTPTTPTPTPTGSDLGVKLLLAAERGQLDEVRILLKAGADVNAKDIAEGYTPLHIAAYQGHLEIVEVLLKAGADVNAKDRYGKTPLHLAAIGGHLEIVEVLLKAGADVNAQDNKGSTPADLAADYGHQDIAEVLQKAAGSPTGSDLGQKLLEAAWAGQDDEVRELLKAGADVNAKNSRGWTPLHTAAQTGHLEIFEVLLKAGADVNAKNDKRVTPLHLAAALGHLEIVEVLLKAGADVNARDSWGTTPADLAAKYGHQDIAEVLQKAA
notes: HSA-HSA-CD70-CD123-CD33-CD3
